Test results: patent US20180148492A1 (CHILDREN S HOSPITAL MEDICAL CENTER, published 2018)

Assays:
[1] = target: the molecule itself; assay: cell-based or functional assay
[2] = target: T1, integrin α4 overexpressed in HEK 293T cells (UniProt P13612 34-1032, limits assumed); assay: co-immunoprecipitation from HEK 293T cells overexpressing the proteins
T1 construct: Tested in cell lysates; also called α4 integrin; pITGA4
T1 sequence (looked up): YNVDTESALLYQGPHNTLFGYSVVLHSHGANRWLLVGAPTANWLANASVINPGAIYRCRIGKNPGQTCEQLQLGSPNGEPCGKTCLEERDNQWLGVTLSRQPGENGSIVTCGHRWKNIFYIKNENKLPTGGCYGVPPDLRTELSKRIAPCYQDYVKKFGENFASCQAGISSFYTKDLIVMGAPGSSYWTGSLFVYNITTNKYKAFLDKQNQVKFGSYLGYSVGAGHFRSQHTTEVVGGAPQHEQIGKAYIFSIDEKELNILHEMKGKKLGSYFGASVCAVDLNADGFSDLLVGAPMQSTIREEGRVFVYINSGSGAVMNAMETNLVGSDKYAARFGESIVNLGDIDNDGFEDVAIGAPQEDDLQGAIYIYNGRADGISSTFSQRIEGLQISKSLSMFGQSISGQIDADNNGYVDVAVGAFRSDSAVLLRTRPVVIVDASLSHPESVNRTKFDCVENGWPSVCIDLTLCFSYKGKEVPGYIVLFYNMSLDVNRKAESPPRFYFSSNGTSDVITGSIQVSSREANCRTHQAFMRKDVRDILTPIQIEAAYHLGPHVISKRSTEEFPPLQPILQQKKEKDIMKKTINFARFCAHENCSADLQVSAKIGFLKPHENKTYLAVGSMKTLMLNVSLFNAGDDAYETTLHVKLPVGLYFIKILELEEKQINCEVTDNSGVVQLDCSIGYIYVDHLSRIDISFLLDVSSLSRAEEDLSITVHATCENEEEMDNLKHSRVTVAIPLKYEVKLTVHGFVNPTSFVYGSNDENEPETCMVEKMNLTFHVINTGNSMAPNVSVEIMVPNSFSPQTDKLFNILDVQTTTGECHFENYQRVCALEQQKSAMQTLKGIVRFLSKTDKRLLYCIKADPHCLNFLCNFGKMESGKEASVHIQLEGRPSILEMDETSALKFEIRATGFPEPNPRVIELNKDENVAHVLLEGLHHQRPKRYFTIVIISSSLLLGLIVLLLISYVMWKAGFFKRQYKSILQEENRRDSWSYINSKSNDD
Experimental: Cells (approximately 2×10⁶) were washed one time with PBS and incubated in IP buffer (50 mM Tris-HCl [pH 7.4], 150 mM NaCl, 2 mM EDTA, 1 mM dithiothreitol, 1% Nonidet P-40 [NP-40]; or 10 mM imidazole, 100 mM NaCl, 1 mM MgCl₂, 5 mM EDTA, 1% Triton X-100, pH 7.4) containing 1× cOmplete protease inhibitor cocktail (Roche) for 10 min on ice. Cells were scraped from the plate and rotated at 4° C. for 10 min. Lysates were cleared by centrifugation at 20,000×g at 4° C. for 10 min. An equal amount of protein was added to total 500 microliters of IP buffer plus protease inhibitors (Roche). Antibodies (2 micrograms α-HA (Covance), α-myc (Covance), α-p120 (BD Transduction Laboratories), α-ITGA4 (Cell Signaling Technology, Inc.), mouse IgG1 control (AbD Serotec), or normal rabbit IgG control (R & D Systems)) were added and rotated overnight at 4° C. Subsequently, 20 microliters of protein A/G agarose beads (Santa Cruz Biotechnology, Inc.) were added per sample. After 2 h of rotation (4° C.), beads were washed 5 times in IP buffer containing protease inhibitors. 2× Laemmli buffer was added to the immunoprecipitates or total cell lysates saved prior to IP (input).

B1: human CDH26 (cadherin 26) expressed on transduced cells (receptor)
chain: DSVQQETDDLTKQTKEKIYQPLRRSKRRWVITTLELEEEDPGPFPKLIGELFNNMSYNMSLMYLISGPGVDEYPEIGLFSLEDHENGRIYVHRPVDREMTPSFTVYFDVVERSTGKIVDTSLIFNIRISDVNDHAPQFPEKEFNITVQENQSAGQPIFQMLAVDLDEENTPNSQVLYFLISQTPLLKESGFRVDRLSGEIRLSGCLDYETAPQFTLLIRARDCGEPSLSSTTTVHVDVQEGNNHRPAFTQENYKVQIPEGRASQGVLRLLVQDRDSPFTSAWRAKFNILHGNEEGHFDISTDPETNEGILNVIKPLDYETRPAQSLIIVVENEERLVFCERGKLQPPRKAAASATVSVQVTDANDPPAFHPQSFIVNKEEGARPGTLLGTFNAMDPDSQIRYELVHDPANWVSVDKNSGVVITVEPIDRESPHVNNSFYVIIIHAVDDGFPPQTATGTLMLFLSDINDNVPTLRPRSRYMEVCESAVHEPLHIEAEDPDLEPFSDPFTFELDNTWGNAEDTWKLGRNWGQSVELLTLRSLPRGNYLVPLFIGDKQGLSQKQTVHVRICPCASGLTCVELADAEVGLHVGALFPVCAAFVALAVALLFLLRCYFVLEPKRHGCSVSNDEGHQTLVMYNAESKGTSAQTWSDVEGQRPALLICTAAAGPTQGVKDLEEVPPSAASQSAQARCALGSWGYGKPFEPRSVKNIHSTPAYPDATMHRQLLAPVEGRMAETLNQKLHVANVLEDDPGYLPHVYSEEGECGGAPSLSSLASLEQELQPDLLDSLGSKATPFEEIYSESGVPS
phosphorylation of ERK upon calcium restoration [1]: 11.6 fold

B2: CDH1 (E-cadherin) overexpressed in HEK 293T cells (receptor, UniProt P12830 155-882, looked up)
chain: DWVIPPISCPENEKGPFPKNLVQIKSNKDKEGKVFYSITGQGADTPPVGVFIIERETGWLKVTEPLDRERIATYTLFSHAVSSNGNAVEDPMEILITVTDQNDNKPEFTQEVFKGSVMEGALPGTSVMEVTATDADDDVNTYNAAIAYTILSQDPELPDKNMFTINRNTGVISVVTTGLDRESFPTYTLVVQAADLQGEGLSTTATAVITVTDTNDNPPIFNPTTYKGQVPENEANVVITTLKVTDADAPNTPAWEAVYTILNDDGGQFVVTTNPVNNDGILKTAKGLDFEAKQQYILHVAVTNVVPFEVSLTTSTATVTVDVLDVNEAPIFVPPEKRVEVSEDFGVGQEITSYTAQEPDTFMEQKITYRIWRDTANWLEINPDTGAISTRAELDREDFEHVKNSTYTALIIATDNGSPVATGTGTLLLILSDVNDNAPIPEPRTIFFCERNPKPQVINIIDADLPPNTSPFTAELTHGASANWTIQYNDPTQESIILKPKMALEVGDYKINLKLMDNQNKDQVTTLEVSVCDCEGAAGVCRKAQPVEAGLQIPAILGILGGILALLILILLLLLFLRRRAVVKEPLLPPEDDTRDNVYYYDEEGGGEEDQDFDLSQLHRGLDARPEVTRNDVAPTLMSVPRYLPRPANPDEIGNFIDENLKAADTDPTAPPYDSLLVFDYEGSGSEAASLSSLNSSESDKDQDYDYLNEWGNRFKKLADMYGGGEDD
notes: Tested in cell lysates; also called pCDH1
binding result [2]: no binding
